Reference: the supplement of paper PMC9170038

System: MS2 coat protein
Test: apparent KD of MS2 coat protein; designed switch direction (-1 OFF switch, 1 ON switch): -1; higher = weaker reporter binding
Outline: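 An oligonucleotide input, 200 uM small-molecule ligand, or no input was present during titration of SNAP-549-labelled MS2 coat protein, which was doubled from 0.7 or 1.5 nM to 3 µM. Designed RNA switches had been transcribed on Illumina chips by stalled E. coli RNA polymerase. Apparent KD per design is the median over clusters of curves fitted to normalised cluster fluorescence.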

[1] = input ligand: microRNA oligo, concentration not stated
[2] = Eterna round: R95, input ligand: FMN 200 uM
[3] = Eterna round: R95, input ligand: microRNA oligo, concentration not stated
[4] = Eterna round: R95, input ligand: none

Sequence	apparent KD of MS2 coat protein (input ligand: FMN 200 uM)	apparent KD of MS2 coat protein (input ligand: none)	other results
UAUUAACAAGCGAGAUCCCACAUGAGGAUCACCCAUGUGCUCGUCUUAUAAGGUACUGUGACGAUAGUCACGGUACC [Mat - Sensor, turn-off var - Eli Mod - D3] (Eterna round: R97, puzzle: Sensor, turn-off variant 1)	14.5 nM	13.8 nM	–
UAUUAAGCAAGCAGAUCCCACAUGAGGAUCACCCAUGUGCUCGUCUUAUAAGGUACUGUGACGAGAGUCACGGUACC [Mat - Sensor, turn-off var - Eli Mod - D69] (Eterna round: R97, puzzle: Sensor, turn-off variant 1)	165 nM	129 nM	–
UAUUAGCAAGCAACUGGGUACAUGAGGAUCACCCAUGUGCUCGUCUUAUAAGGUACUGUGACGAAAUUCACGGUACC [mod--Eli13] (Eterna round: R97, puzzle: Sensor, turn-off variant 1)	21.1 nM	18.6 nM	–
UAUUAGCAAGCAAGAUCCCACAUGAGGAUCACCCAUGUGCUCGUCUUAUAAGGUACUGUGACGAUAGUCACGGUACC [Mat - Sensor, turn-off var - Eli Mod - D46] (Eterna round: R97, puzzle: Sensor, turn-off variant 1)	60.5 nM	54.1 nM	–
UAUUAGCAAGCGAGAUCCCACAUGAGGAUCACCCAUGUGCUCGUCUUAAGCCCAGAAUUACUGGGCGCUCGUCUUAU [Winner reversed engineered 20] (Eterna round: R97, puzzle: Sensor, turn-off variant 1)	13.1 nM	12.7 nM	–
UAUUAGCAAGCGAGAUCCCACAUGAGGAUCACCCAUGUGCUCGUCUUAUAAGGUACUGUGACGAAAGUCACGGUACC [Sensor 3, v1 - 91] (Eterna round: R96, puzzle: Sensor v3, turn-off variant 1)	11.5 nM	15.5 nM	apparent KD of MS2 coat protein [1]: 298 nM
UAUUAGCAAGCGAGAUCCCACAUGAGGAUCACCCAUGUGCUCGUCUUAUAAGGUACUGUGACGAAAGUCACGGUACC [Sensor 3, v1 - 91] (puzzle: Sensor v3, turn-off variant 1)	–	–	apparent KD of MS2 coat protein [2]: 12.6 nM; apparent KD of MS2 coat protein [3]: 441 nM; apparent KD of MS2 coat protein [4]: 10.8 nM
UAUUAGCAAGCGAGAUCCCACAUGAGGAUCACCCAUGUGCUCGUCUUAUAAGGUACUGUGACGAAAGUCACGGUACC [Sensor 3, v1 - 95 v5] (Eterna round: R97, puzzle: Sensor, turn-off variant 1)	16.8 nM	15.3 nM	–
UAUUAGCAAGCUAGAUCCCACAUGAGGAUCACCCAUGUGCUCGUCUUAUAAGGUACUGUGACGAAAGUCACGGUACC [Sensor 3, v1 - 96] (puzzle: Sensor v3, turn-off variant 1)	–	–	apparent KD of MS2 coat protein [2]: 56.8 nM; apparent KD of MS2 coat protein [3]: 798 nM; apparent KD of MS2 coat protein [4]: 57.5 nM
UAUUAGCAAGUAAGAUCCCACAUGAGGAUCACCCAUGUGCUCGUCAUAUCACGUACUGUGAGGAAACUCACGGUACG [Sensor-V1 #85] (Eterna round: R97, puzzle: Sensor, turn-off variant 1)	114 nM	128 nM	–
UAUUCGCAAGCGAGAUCCCACAUGAGGAUCACCCAUGUGCUCGUCUUAUAAGGUACUGUGACGAUAGUCACGGUACC [Mat - Sensor, turn-off var - Eli Mod - D81] (Eterna round: R97, puzzle: Sensor, turn-off variant 1)	16.7 nM	16.3 nM	–
UAUUCGCAAGUGAGAUCCCACAUGAGGAUCACCCAUGUGCUCGUCUUAUAAGGUACUGUGACGAUAGUCACGGUACC [Mat - Sensor, turn-off var - Eli Mod - D80] (Eterna round: R97, puzzle: Sensor, turn-off variant 1)	30.9 nM	32.5 nM	–
UAUUGGAUAGGAUAUACAUGAGGAUCACCCAUGUGGACGGCUAAGCCUACCGCGCAGAGUAGAAGGGUCGGGUG [Eternabot (L1) Solution 66] (Eterna round: R97, puzzle: Exclusion 3)	161 nM	155 nM	–
UAUUUACAUGAGGAUCACCCAUGUCAGGAUAUGUUUCUAUCGUCGAAAGACGAUAUUUGCAGAAGGGACAAUAU [LRO-Excl01-26 mod derived from EliFisker 4.24] (Eterna round: R97, puzzle: Exclusion 1)	64.4 nM	27.9 nM	–
UAUUUUAAAGUAAGGAUAUCGGUCCGAAAGGACUACGAGAAGGUACAUGAGGAUCACCCAUGUGAAAUAAGAAU [Mod of Zala 23 - Jieux - Brourd's Mod of Exclusion 4] (Eterna round: R97, puzzle: Brourd's mod of Exclusion 4)	20.8 nM	15 nM	–
UCAAAAUAGUCAGGAUAUGCAGAUUCAGCGUCCGCAGAAGGGACAGUGGGCUGGUCCGACACAUGAGGAUCACCCAUGUAAAAG [Teerreanor] (Eterna round: R96, puzzle: Exclusion NG 1)	260 nM	109 nM	apparent KD of MS2 coat protein [1]: 140 nM
UCAAGCUUUAAGCGUGUGAACAUGAGGAUCACCCAUGUAUUUUAGGUAAUAAGUUCUUUUAUGUAUUCUCGUCUUAU [JR_SWV3TOV1_Sub094] (puzzle: Sensor v3, turn-off variant 1)	–	–	apparent KD of MS2 coat protein [2]: 114 nM; apparent KD of MS2 coat protein [3]: 39.1 nM; apparent KD of MS2 coat protein [4]: 136 nM

Sequence	apparent KD of MS2 coat protein (input ligand: FMN 200 uM)	apparent KD of MS2 coat protein (input ligand: none)	other results
UCAAGUAUGUAGGAUAUGAUGUGAUUUUACAUAUCAGAAGGACGUACAUGAGGAUCACCCAUGUAACUUGCAUG [Exclusion 6 - B - 12:a] (puzzle: Exclusion 6)	–	–	apparent KD of MS2 coat protein [3]: 86.9 nM
UCACGGCUCGGAGGAUAUGACACAUGAGGAUCACCCAUGUGUGUAAGCCAAUAAACCUACAAAUGUCAGAAGGCCGCGCCUCAU [Eternabot solution 9] (Eterna round: R96, puzzle: Exclusion NG 2)	–	–	apparent KD of MS2 coat protein [1]: 10.8 nM
UCACGGGACUGAGGAUAUACAUGAAUUAUUUUUGUAGAAGGCAGAAUGUUAGUUUAUUCACUAUACAUGAGGAUCACCCAUGUU [JR_ExcNG1_Sub021] (Eterna round: R96, puzzle: Exclusion NG 1)	21.5 nM	32.9 nM	apparent KD of MS2 coat protein [1]: 26.7 nM
UCACGGGAUUGAGGAUAUAUAUUAAUUUUUUUUAUAGAAGGCAAAUUGUUAGAUUAUUCACUAUACAUGAGGAUCACCCAUGUU [JR_ExcBG1_Sub077] (Eterna round: R96, puzzle: Exclusion NG 1)	–	–	apparent KD of MS2 coat protein [1]: 19.9 nM
UCACGGGAUUGAGGAUAUAUAUUUAUUAUUUUAAUAGAAGGCAAAGAGUUAGUUUUUUCACUAUACAUGAGGAUCACCCAUGUU [JR_ExcNG1_Sub086] (Eterna round: R96, puzzle: Exclusion NG 1)	–	–	apparent KD of MS2 coat protein [1]: 23.2 nM
UCAGGAGCAGGAUAUGCAAUCGUGCUUCGGCACGUAAGGUCACAUGAGGAUCACCCAUGUAGAAGGGCUCCUGA [E2/4-D2] (Eterna round: R97, puzzle: Exclusion 2)	38.4 nM	18.4 nM	–
UCAGGUGCAGGAUAUACAUGAGGAUCACCCAUGUGAUUAGCAGUCCUCGGACUGCAAUGUAGAAGGGCACCUGA [E3/2-D2] (Eterna round: R97, puzzle: Exclusion 3)	763 nM	346 nM	–
UCAUACGAUGAGGAUAUCUCAGUUAAAGUAUUUAGAGAAGGCGUUACAUGAGGAUCACCCAUGUUUGUGGGCAG [Ex-6 Malc#8] (puzzle: Exclusion 6)	–	–	apparent KD of MS2 coat protein [2]: 99.1 nM; apparent KD of MS2 coat protein [3]: 93.9 nM; apparent KD of MS2 coat protein [4]: 136 nM
UCAUACGAUGAGGAUAUCUCCGUUAAAGUAUGUAGAGAAGGCGUUACAUGAGGAUCACCCAUGUUUGUGGGCAG [Ex-6 Malc#9] (Eterna round: R96, puzzle: Exclusion 6)	–	–	apparent KD of MS2 coat protein [1]: 250 nM
UCAUACGAUGAGGAUAUCUCCGUUAAAGUAUGUAGAGAAGGCGUUACAUGAGGAUCACCCAUGUUUGUGGGCAG [Ex-6 Malc#9] (puzzle: Exclusion 6)	–	–	apparent KD of MS2 coat protein [2]: 223 nM; apparent KD of MS2 coat protein [3]: 217 nM; apparent KD of MS2 coat protein [4]: 190 nM
UCAUAGUGAGGAUAUCGGUCCCUGACAAAUAGUUGGGUUAUUGAGAAGGCACAUGAGGAUCACCCAUGUGUCCG [EX4 C.5] (Eterna round: R97, puzzle: Exclusion 4)	19.7 nM	13.5 nM	–
UCAUGUAUGUAGGAUAUCGAUGUCUUCGGACAUCGAGAAGGACGUACAUGAGGAUCACCCAUGUAACUUGCAUG [Exclusion 6 - B - 11:b] (puzzle: Exclusion 6)	–	–	apparent KD of MS2 coat protein [3]: 14.8 nM
UCCAAGACAGGAUAUCUAGAGCCAAACAUGAGGAUCACCCAUGUGAAUCUCAGCAAACGCAGAGAAGGGUCAAAAU [Orisinxe] (puzzle: Exclusion 5)	–	–	apparent KD of MS2 coat protein [2]: 30.1 nM; apparent KD of MS2 coat protein [3]: 23.2 nM; apparent KD of MS2 coat protein [4]: 30.9 nM
UCCACACAUGAGGAUCACCCAUGUCAGGAUAUCUUUAGGGACUAUGGUUAUUCCUAAUAGAGAAGGGACAUAUU [EX1 B.27] (Eterna round: R97, puzzle: Exclusion 1)	152 nM	37.1 nM	–
UCCAGACAUGAGGAUCACCCAUGUGAGGAUAUGAUGCGAUCGUCGAAAGACGAUAGCAUCAGAAGGCACGUAUG [Fiskers Ex 1 - 15] (puzzle: Exclusion 1)	–	–	apparent KD of MS2 coat protein [3]: 32.6 nM
UCCAUGUCAGGAUAUCUAAAGGUCCGAAAUAACGGUACUGCAGAGAAGGGACAUGAGGAUCACCCAUGUCCUCC [Exclusion 4 (Mod2 of Nando's EX4 C.22)] (Eterna round: R97, puzzle: Exclusion 4)	20.3 nM	16 nM	–
